Source: the RNAGym collection of RNA variant scans (doi:10.7554/elife.80360)

B1: Twister Ribozyme (parent)
chain: AACACUGCCAAUGCCGGUCCCAAGCCCGGAUAAAAGUGGAGGGGGCGG

Variants of: B1
Test: self-cleavage, relative activity (ratio to wild type); higher = more cleavage; co-transcriptional

Point of comparison: ACCACUGCCAAUGCCGGUCCGAAGCCCGGAUAAAAGUGGAGGGGGCGG, self-cleavage 0.0366. Against it:
- ACCACUGCCAAUGUCGGUCCCAAGCCCGGAUAAAAGUGGAGGGGGCGG — higher, 0.0681
- ACGACUGCCAAUGCCGGUCCCAAGCCCGGAUAAAAGUGGAGGGGGCGG — higher, 0.127
- ACCACUGCCAAUGCCGGUCCCACGCCCGGAUAAAAGUGGAGGGGGCGG — lower, 0.0233
- ACCACUGCUAAUGCCGGUCCCAAGCCCGGAUAAAAGUGGAGGGGGCGG — higher, 0.0433
- ACCCCUGCCAAUGCCGGUCCCAAGCCCGGAUAAAAGUGGAGGGGGCGG — higher, 0.154
- ACCGCUGCCAAUGCCGGUCCCAAGCCCGGAUAAAAGUGGAGGGGGCGG — higher, 0.0453
- ACCUCUGCCAAUGCCGGUCCCAAGCCCGGAUAAAAGUGGAGGGGGCGG — higher, 0.0426
- ACCACUGCCAAUGCUGGUCCCAAGCCCGGAUAAAAGUGGAGGGGGCGG — higher, 0.088
- UACACUGCCAAUGCCGGUCCCAAGCCCGGAUAAAAGUUGAGGGGGCGG — higher, 0.0843
- UACACUGCCAACGCCGGUCCCAAGCCCGGAUAAAAGUGGAGGGGGCGG — higher, 0.0693
- UACACUGCCAAAGCCGGUCCCAAGCCCGGAUAAAAGUGGAGGGGGCGG — higher, 0.0685
- UACACUGCCAAGGCCGGUCCCAAGCCCGGAUAAAAGUGGAGGGGGCGG — higher, 0.0921
- ACCACUGCCAAUGCCGGUCCCAAGCCCGGAUAGAAGUGGAGGGGGCGG — higher, 0.107
- ACCACUGCCAAUGCCGGUCCCAAGCCCGGAUAUAAGUGGAGGGGGCGG — higher, 0.0693
- ACCACUGCCAAUGCCGGUCCCAAGCCCGGAUACAAGUGGAGGGGGCGG — lower, 0.0306
- UACACUGCCAAUGCCGGUCCCAAGCCCGGAUAAAAGUGGAGAGGGCGG — higher, 0.0707
- UACACUGCCAAUGCCGGUCCCAAGCCCGGAUAAAAGUGGAGUGGGCGG — higher, 0.0745
- UACACUGCCAAUGCCGGUCCCAAGCCCGGAUAAAAGUGGAGGGGGUGG — higher, 0.0668
- ACCACUGCCAAUGCCGGUCCUAAGCCCGGAUAAAAGUGGAGGGGGCGG — higher, 0.0368
- UACACUGCCAAUGCCGGUCCCAAGACCGGAUAAAAGUGGAGGGGGCGG — higher, 0.0664
- ACCACUGCCAAUGCCCGUCCCAAGCCCGGAUAAAAGUGGAGGGGGCGG — higher, 0.0398
- ACCACUGCCAAUGCCUGUCCCAAGCCCGGAUAAAAGUGGAGGGGGCGG — higher, 0.0604
- UACACUGCCAAUGCCGGUCCCAAGCCCGGAUAAAAGUGGAGGGGGCGC — higher, 0.0772
- UACACUGCCAAUGCCGGUCCCAAGCCCGGAUAAAAGUGGAGGGGGCGA — higher, 0.0713
- UACACUGCCAAUGCCGGUCCCAAGCCCGGAUAAAAGUGGAGGGGGCGU — higher, 0.0644
- ACCACUGCCAAUGCCGGUCCCAAGCCCGGAUAAAAAUGGAGGGGGCGG — higher, 0.0575
- ACCACUGCCAAUGCCGGUCCCAAGCCCGGAUAAAAUUGGAGGGGGCGG — higher, 0.0783
- ACCACUGCCAAUGCCGGUCCCAAGCCCGGAUAAGAGUGGAGGGGGCGG — higher, 0.0505
- UACACUGCCAAUGCCGGUCCCAAGCGCGGAUAAAAGUGGAGGGGGCGG — higher, 0.0605
- UACACUGCCAAUGCCGGUCCCAAGCUCGGAUAAAAGUGGAGGGGGCGG — higher, 0.0863
- UACACUGCCAAUGCCGGUCCCAAGCCCGGAUAAAAAUGGAGGGGGCGG — higher, 0.0371
- ACCACUGGCAAUGCCGGUCCCAAGCCCGGAUAAAAGUGGAGGGGGCGG — higher, 0.0519
- UACACUGCCAAUGCCGGUCCCAAGCCAGGAUAAAAGUGGAGGGGGCGG — higher, 0.0592
- UACACUGCCAAUGCAGGUCCCAAGCCCGGAUAAAAGUGGAGGGGGCGG — higher, 0.0603
- UACACUGCCAAUGCGGGUCCCAAGCCCGGAUAAAAGUGGAGGGGGCGG — higher, 0.0744
- UACACUGCCAAUGCCGGUCCCAAGCCCGGAUAAAAGUGGAGGGGGCUG — higher, 0.0673
- UACACUGCCAAUGCCGGUCCCAAGCCCGGAUAAAAGUGGAGGGGGCAG — higher, 0.0626
- UAAACUGCCAAUGCCGGUCCCAAGCCCGGAUAAAAGUGGAGGGGGCGG — higher, 0.222
- UACACUGCCAAUGCCGGUCCCAAGCCCGAAUAAAAGUGGAGGGGGCGG — higher, 0.0545
- ACCACUGCCAAUGCCGAUCCCAAGCCCGGAUAAAAGUGGAGGGGGCGG — higher, 0.063
- ACCACUGCCAAUGCCGUUCCCAAGCCCGGAUAAAAGUGGAGGGGGCGG — higher, 0.0456
- UACACUGCCAAUGCCGGUCCCAAACCCGGAUAAAAGUGGAGGGGGCGG — higher, 0.062
- UACACUGCCAAUGCCGGUCCCAAGCCCGGAUAAAAGUGGAGGCGGCGG — higher, 0.0749
- ACCACUUCCAAUGCCGGUCCCAAGCCCGGAUAAAAGUGGAGGGGGCGG — higher, 0.0484
- ACCACUGCCAAUGCCGGUCCCAAGCGCGGAUAAAAGUGGAGGGGGCGG — higher, 0.0867
- ACCACUGCCAAUCCCGGUCCCAAGCCCGGAUAAAAGUGGAGGGGGCGG — lower, 0.0312
- ACCACUGCCAAUUCCGGUCCCAAGCCCGGAUAAAAGUGGAGGGGGCGG — higher, 0.0549
- ACCACUGCCAAUGCCGGUCCCAAGCCCGGAUAAAAGUGGAGGGGGUGG — higher, 0.0993
- ACCACUGCCAAUGCCGGUCCCAAGCCCGGAUAAAAGUGGAGGGGGAGG — higher, 0.0436
- ACCACUGCCAAUGCCGGUCCCAAGCCCGGAUAAAAGUGGAGGGGGGGG — higher, 0.0474
- UACACUGCCAAUGCCGGUCCCAAGCCCCGAUAAAAGUGGAGGGGGCGG — higher, 0.0644
- UACACUGCCAAUGCCGGUCCCAAGCCCUGAUAAAAGUGGAGGGGGCGG — higher, 0.0658
- ACCACUGCCAAUGCCGGUCCCAAGCCCGGAUAAAAGUGGAGGGGCCGG — higher, 0.0767
